The results in this text go back to US20060105444.

Data set [1] concerns the target human Factor IX EGF domain (wild type) (UniProt P00740).
For data set [2], the target named is human Factor IX EGF domain mutant EGF.AA (UniProt P00740).
In data set [3] the target is human Factor IX EGF domain mutant EGF.AG (UniProt P00740).
For data set [4], the target named is human Factor IX EGF domain mutant EGF.GA (UniProt P00740).
Chain of human Factor IX EGF domain mutant EGF.GA (P00740 other isoform, or with tags, fused parts or gaps mutant): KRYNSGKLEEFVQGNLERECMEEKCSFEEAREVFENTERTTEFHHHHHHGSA

Chain of human Factor IX EGF domain mutant EGF.AA (P00740 other isoform, or with tags, fused parts or gaps mutant): as above
Chain of human Factor IX EGF domain mutant EGF.AG (P00740 other isoform, or with tags, fused parts or gaps mutant): as above
Chain of human Factor IX EGF domain (wild type) (P00740 other isoform, or with tags, fused parts or gaps): as the sequence (P00740 other isoform, or with tags, fused parts or gaps mutant) above

“O-fucosyltransferase purified from CHO cells”: the Fucose (cpm) in data set [1] was 12100 cpm; in data set [2], 1820 cpm; in data set [3] it was 4580 cpm; in data set [4], 6480 cpm. The “RP-HPLC with electrospray mass spectrometry of the fucosylation product” value in data set [2] is on record as “only one of the four differently folded species served as an acceptor substrate for the O-fucosyltransferase”.
